Patent US20220332804A1 (CSL INNOVATION, published 2022)

Assays:
Assay in all cases: SPR, KD relative to WT C2;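 note: biacore SPR at 37 °C, anti-C2 mAbs captured on anti-human IgG chips with alanine or serine point mutants of C2 as analyte, KD from 1:1 fit compared with wild-type C2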
human C2 M452A = target: T1, human C2 M452A (human, UniProt P06681 21-752)
T1 sequence: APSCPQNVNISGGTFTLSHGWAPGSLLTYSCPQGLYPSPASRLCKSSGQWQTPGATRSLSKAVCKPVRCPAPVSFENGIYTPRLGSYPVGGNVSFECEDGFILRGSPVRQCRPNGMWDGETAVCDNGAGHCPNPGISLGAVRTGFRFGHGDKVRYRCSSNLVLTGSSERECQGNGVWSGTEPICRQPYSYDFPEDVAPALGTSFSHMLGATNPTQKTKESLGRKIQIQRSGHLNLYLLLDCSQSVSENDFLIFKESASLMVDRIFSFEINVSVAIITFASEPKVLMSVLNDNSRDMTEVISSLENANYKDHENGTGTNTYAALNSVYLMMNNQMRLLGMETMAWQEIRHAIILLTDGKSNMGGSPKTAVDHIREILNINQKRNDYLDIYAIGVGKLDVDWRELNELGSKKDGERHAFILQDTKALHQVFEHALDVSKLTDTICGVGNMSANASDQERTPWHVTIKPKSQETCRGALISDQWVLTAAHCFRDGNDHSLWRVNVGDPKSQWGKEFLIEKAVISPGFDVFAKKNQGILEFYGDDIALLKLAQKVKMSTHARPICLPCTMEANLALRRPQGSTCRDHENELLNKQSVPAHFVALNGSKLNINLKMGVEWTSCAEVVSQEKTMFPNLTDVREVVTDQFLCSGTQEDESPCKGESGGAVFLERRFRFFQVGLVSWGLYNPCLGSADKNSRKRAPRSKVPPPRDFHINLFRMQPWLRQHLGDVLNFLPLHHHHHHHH

human C2 L439A = target: T2, human C2 L439A (human, UniProt P06681 21-752)
T2 sequence: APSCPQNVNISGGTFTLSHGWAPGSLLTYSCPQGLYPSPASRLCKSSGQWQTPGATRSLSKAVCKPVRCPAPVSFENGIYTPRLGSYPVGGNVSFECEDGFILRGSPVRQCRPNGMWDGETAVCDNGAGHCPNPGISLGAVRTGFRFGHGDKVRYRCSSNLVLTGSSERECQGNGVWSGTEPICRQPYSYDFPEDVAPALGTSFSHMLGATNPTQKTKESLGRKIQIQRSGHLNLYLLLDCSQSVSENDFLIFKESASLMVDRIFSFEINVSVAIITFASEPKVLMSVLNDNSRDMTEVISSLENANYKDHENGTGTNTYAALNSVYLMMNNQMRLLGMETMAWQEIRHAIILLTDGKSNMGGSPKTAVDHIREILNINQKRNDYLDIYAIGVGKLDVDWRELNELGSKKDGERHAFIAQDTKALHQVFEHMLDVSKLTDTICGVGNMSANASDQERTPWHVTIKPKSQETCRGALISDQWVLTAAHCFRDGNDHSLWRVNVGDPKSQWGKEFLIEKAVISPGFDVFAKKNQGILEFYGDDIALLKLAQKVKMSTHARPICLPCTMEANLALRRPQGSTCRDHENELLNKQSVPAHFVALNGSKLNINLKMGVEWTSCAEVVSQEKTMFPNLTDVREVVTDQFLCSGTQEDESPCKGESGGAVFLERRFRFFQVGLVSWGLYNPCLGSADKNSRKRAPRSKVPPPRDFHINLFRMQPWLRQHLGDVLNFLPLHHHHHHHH

human C2 D431A = target: T3, human C2 D431A (human, UniProt P06681 21-752)
T3 sequence: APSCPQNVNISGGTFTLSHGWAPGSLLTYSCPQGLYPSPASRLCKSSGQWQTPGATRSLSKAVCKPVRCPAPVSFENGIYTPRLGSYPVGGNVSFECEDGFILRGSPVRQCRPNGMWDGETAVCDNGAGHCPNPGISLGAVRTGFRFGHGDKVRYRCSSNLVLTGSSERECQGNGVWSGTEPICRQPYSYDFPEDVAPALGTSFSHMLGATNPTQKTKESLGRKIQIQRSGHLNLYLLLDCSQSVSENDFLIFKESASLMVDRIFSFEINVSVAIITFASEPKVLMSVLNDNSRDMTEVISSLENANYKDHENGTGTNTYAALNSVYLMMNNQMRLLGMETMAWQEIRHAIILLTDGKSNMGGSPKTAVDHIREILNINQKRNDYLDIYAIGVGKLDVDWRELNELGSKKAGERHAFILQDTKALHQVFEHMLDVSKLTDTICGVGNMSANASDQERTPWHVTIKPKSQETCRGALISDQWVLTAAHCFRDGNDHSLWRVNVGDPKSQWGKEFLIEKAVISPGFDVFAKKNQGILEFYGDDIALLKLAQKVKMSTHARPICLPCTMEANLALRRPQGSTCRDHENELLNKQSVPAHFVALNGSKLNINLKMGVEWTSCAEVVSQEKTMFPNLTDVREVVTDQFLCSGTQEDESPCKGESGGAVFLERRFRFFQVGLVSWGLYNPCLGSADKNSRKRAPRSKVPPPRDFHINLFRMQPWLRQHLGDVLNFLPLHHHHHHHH

human C2 N268A = target: T4, human C2 N268A (human, UniProt P06681 21-752)
T4 sequence: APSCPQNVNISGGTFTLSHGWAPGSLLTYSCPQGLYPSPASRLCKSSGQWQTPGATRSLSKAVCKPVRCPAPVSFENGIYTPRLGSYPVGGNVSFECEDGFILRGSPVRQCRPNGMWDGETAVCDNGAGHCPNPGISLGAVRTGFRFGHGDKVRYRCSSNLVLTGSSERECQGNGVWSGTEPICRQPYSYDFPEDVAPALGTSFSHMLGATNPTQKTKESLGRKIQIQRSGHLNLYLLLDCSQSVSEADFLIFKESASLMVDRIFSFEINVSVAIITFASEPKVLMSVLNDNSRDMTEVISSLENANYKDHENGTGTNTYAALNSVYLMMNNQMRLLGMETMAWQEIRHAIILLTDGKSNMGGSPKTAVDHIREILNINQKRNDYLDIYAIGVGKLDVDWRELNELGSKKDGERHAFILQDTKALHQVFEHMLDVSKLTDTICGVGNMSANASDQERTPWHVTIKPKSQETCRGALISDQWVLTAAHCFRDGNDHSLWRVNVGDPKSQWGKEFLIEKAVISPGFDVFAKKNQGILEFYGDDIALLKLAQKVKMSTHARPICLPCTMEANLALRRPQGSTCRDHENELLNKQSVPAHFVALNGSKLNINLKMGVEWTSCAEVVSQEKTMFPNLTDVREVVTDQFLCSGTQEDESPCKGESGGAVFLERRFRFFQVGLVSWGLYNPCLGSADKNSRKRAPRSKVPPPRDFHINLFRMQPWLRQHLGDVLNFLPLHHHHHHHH

B1: RF16-242 (antibody, human IgG4 S228P, lambda, V domains shown)
VH: EVQLLQSGAEVKKPGESLKISCKGSGYSFTSYWIGWVRQMPGKGLEWMGIIYPGDSDTRYSPSFQGQVTISADKSISTAYLQWSSLKASDTAMYYCARRGHYGDYFDYWGQGTLVTVSS
VL: SYELTQPPSVSVSPGQTARITCSGDALPKKYAYWYHQKSGQAPVLVIYEDRRRPSEIPERFSGSSSGTMATLTITGAQVEDEGVYFCYSRDRAGNQRVFGGGTQLTVLG
notes: pH-dependent anti-C2 antibody from a phage display library
- Fold diff (human C2 M452A): 1 fold
- Fold diff (human C2 L439A): 24 fold
- Fold diff (human C2 D431A): 3 fold
- Fold diff (human C2 N268A): 2 fold
